Source: the RNAGym collection of RNA variant scans (doi:10.7554/elife.80360)

B1: HDV Ribozyme (parent)
chain: GGCCGGCAUGGUCCCAGCCUCCUCGCUGGCGCCGGCUGGGCAACAUUCCGAGGGGACCGUCCCCUCGGUAAUGGCGAAUGGGACCCA

Variants of: B1
Test: self-cleavage, relative activity (ratio to wild type); higher = more cleavage; co-transcriptional
GGCCGGCAUGGUCCCAGCCUCCUCGCUGGCGACGGCUGGGCAACAUUCCAAGGGGACCGUCCCCUCGGUAAUGGCGAAUGGGACCCA gave a self-cleavage of 0.136.
Variant GGCCGGCAUGGUCCCAGCCUCCUCGCUGGCGACGGCUGGGCAACAUUCCCAGGGGACCGUCCCCUCGGUAAUGGCGAAUGGGACCCA has a self-cleavage of 0.262.
With GGCCGGCAUGGUCCCAGCCUCCUCGCUGGCGACGGCUGGGCAACAUUCCGAGGGGACCGUCCCCUUGGUAAUGGCGAAUGGGACCCA the self-cleavage was 0.315.
With GGCCGGCAUGGUCCCAGCCUCCUCGCUGGCGAUGGCUGGGCAACAUUCCGAGGGGACCGUCCCCUCGGUAAUGGCGAAUGGGACCCA the self-cleavage was 0.0779.
Work on GGCCGGCAUGGUCCCAGCCUCCUCGCUGGCGACGGCUGGGCAACAUUCCGAGGGGACCGUCCCUUCGGUAAUGGCGAAUGGGACCCA yielded a self-cleavage of 0.175.
In the case of GGCCGGCAUGGUCCCAGCCUCCUCGCUGGCGACGGCUGGGCAACAUUGCGAGGGGACCGUCCCCUCGGUAAUGGCGAAUGGGACCCA, the self-cleavage is reported as 0.0462.
In the case of GGCCGGCAUGGUCCCAGCCUCCUCGCUGGCGACGGCUGGGCAACAUUCCGAGGGGACCGUCCCCUCGGUAAUGGCGAAUGGGAUCCA, the self-cleavage is reported as 0.0536.
Work on GGCCGGCAUGGUCCCAGCCUCCUCGCUGGCGACGGCUGGGCAACAUUCCGAGGGGACCGUCUCCUCGGUAAUGGCGAAUGGGACCCA yielded a self-cleavage of 0.341.
GGCCGGCAUGGUCCCAGCCUCCUCGCUGGCGACGGCUGGGCAACAUUCCGAGGGGACCGUCGCCUCGGUAAUGGCGAAUGGGACCCA gave a self-cleavage of 0.0489.
For GGCCGGCAUGGUCCCAGCCUCCUCGCUGGCGGCGGCUGGGCAACAUUCCGAGGGGACCGUCCUCUCGGUAAUGGCGAAUGGGACCCA, the self-cleavage was 0.112.
GGCCGGCAUGGUCCCAGCCUCCUCGCUGGCGGCGGCUGGGCAACAUUCCGAGGGGACCGUCCGCUCGGUAAUGGCGAAUGGGACCCA showed a self-cleavage of 0.0831.
For GGCCGGCAUGGUCCCAGCCUCCUCGCUGGCGACGGCUGGGUAACAUUCCGAGGGGACCGUCCCCUCGGUAAUGGCGAAUGGGACCCA, the self-cleavage was 0.143.
Variant GGCCGGCAUGGUCCCAGCCUCCUCGCUGGCGACGGCUGGGCAACAUUCCGACGGGACCGUCCCCUCGGUAAUGGCGAAUGGGACCCA has a self-cleavage of 0.0831.
GGCCGGCAUGGUCCCAGCCUCCUCGCUGGCGACGGCUGGGCAACAUUCCGAAGGGACCGUCCCCUCGGUAAUGGCGAAUGGGACCCA showed a self-cleavage of 0.302.
For GGCCGGCAUGGUCCCAGCCUCCUCGCUGGCGACGGCUGGGCAACAUCCCGAGGGGACCGUCCCCUCGGUAAUGGCGAAUGGGACCCA, the self-cleavage was 0.0462.
With GGCCGGCAUGGUCCCAGCCUCCUCGCUGGCGACGGCUGAGCAACAUUCCGAGGGGACCGUCCCCUCGGUAAUGGCGAAUGGGACCCA the self-cleavage was 0.0563.
Work on GGCCGGCAUGGUCCCAGCCUCCUCGCUGGCGGCGGGUGGGCAACAUUCCGAGGGGACCGUCCCCUCGGUAAUGGCGAAUGGGACCCA yielded a self-cleavage of 0.0449.
Variant GGCCGGCAUGGUCCCAGCCUCCUCGCUGGCGACGGCUGGGCAACAUUCCGAGGGGACCGUCCCCUCGGUAAUGGCGAAAGGGACCCA has a self-cleavage of 0.121.
Work on GGCCGGCAUGGUCCCAGCCUCCUCGCUGGCGGCGGCUGGGCAACAUUCCGAGGGGACCGUCCCCUCGGUCAUGGCGAAUGGGACCCA yielded a self-cleavage of 0.38.
For GGCCGGCAUGGUCCCAGCCUCCUCGCUGGCGACGGCUGGGCAACAUUCCGAGGGGACCGUCCCCUCGGUAUUGGCGAAUGGGACCCA, the self-cleavage was 0.222.
GGCCGGCAUGGUCCCAGCCUCCUCGCUGGCGACGGCUGGGCAACAUUCCGAGGGGACCGUCCCCUCGUUAAUGGCGAAUGGGACCCA gave a self-cleavage of 0.0906.
Variant GGCCGGCAUGGUCCCAGCCUCCUCGCUGGCGACGGCUGGGCAACAUUCCGAGGGGACCGUCCCCUCGCUAAUGGCGAAUGGGACCCA has a self-cleavage of 0.113.
With GGCCGGCAUGGUCCCAGCCUCCUCGCUGGCGACGGCUGGGCAACAUUCGGAGGGGACCGUCCCCUCGGUAAUGGCGAAUGGGACCCA the self-cleavage was 0.222.
Variant GGCCGGCAUGGUCCCAGCCUCCUCGCUGGCGACGGCUGGGCAACAUUCUGAGGGGACCGUCCCCUCGGUAAUGGCGAAUGGGACCCA has a self-cleavage of 0.0997.
With GGCCGGCAUGGUCCCAGCCUCCUCGCUGGCGACGGCUGGGCAACAUUCCGAGGGGACCGUCCCCUCGGUAAUGGCGAAUGGGGCCCA the self-cleavage was 0.152.
For GGCCGGCAUGGUCCCAGCCUCCUCGCUGGCGACGGCUGGGCAACAUUCCGAGGGGACCGUCCCCUCGGUAAUGGCGAUUGGGACCCA, the self-cleavage was 0.0923.
Variant GGCCGGCAUGGUCCCAGCCUCCUCGCUGGCGGCGGCUGGGGAACAUUCCGAGGGGACCGUCCCCUCGGUAAUGGCGAAUGGGACCCA has a self-cleavage of 0.0665.
GGCCGGCAUGGUCCCAGCCUCCUCGCUGGCGGCGGCUGGGCAACAUUCCGAGGGGACCGUCCCCUCGGUAAUGGCGAAUGGGACCCA gave a self-cleavage of 0.103.
GGCCGGCAUGGUCCCAGCCUCCUCGCUGGCGGCGGCUGGGCAACAUUCCGAGGGGACCGUCCCCUCGGUAAUGGCGAAUGGGUCCCA showed a self-cleavage of 0.166.
Variant GGCCGGCAUGGUCCCAGCCUCCUCGCUGGCGACGGCUGGGCAACAUUCCGAGGGGACCGUCCCCUCGGUAAUGGCGAAUGGGACCCU has a self-cleavage of 0.183.
Variant GGCCGGCAUGGUCCCAGCCUCCUCGCUGGCGACGGCUGGGCAACAUUCCGAGGGGACCGUCCCCUCGGUAAUGGCGAAUGGGACCCG has a self-cleavage of 0.165.
GGCCGGCAUGGUCCCAGCCUCCUCGCUGGCGGCGGCUGGGCGACAUUCCGAGGGGACCGUCCCCUCGGUAAUGGCGAAUGGGACCCA gave a self-cleavage of 0.0426.
With GGCCGGCAUGGUCCCAGCCUCCUCGCUGGCGGCGGCUGGGCUACAUUCCGAGGGGACCGUCCCCUCGGUAAUGGCGAAUGGGACCCA the self-cleavage was 0.0594.
With GGCCGGCAUGGUCCCAGCCUCCUCGCUGGCGACGGCUGGGCAAAAUUCCGAGGGGACCGUCCCCUCGGUAAUGGCGAAUGGGACCCA the self-cleavage was 0.364.
Work on GGCCGGCAUGGUCCCAGCCUCCUCGCUGGCGACGGCUGGGCAAUAUUCCGAGGGGACCGUCCCCUCGGUAAUGGCGAAUGGGACCCA yielded a self-cleavage of 0.0875.
GGCCGGCAUGGUCCCAGCCUCCUCGCUGGCGACGGCUGGGCAAGAUUCCGAGGGGACCGUCCCCUCGGUAAUGGCGAAUGGGACCCA showed a self-cleavage of 0.107.
Work on GGCCGGCAUGGUCCCAGCCUCCUCGCUGGCGGCGGCUGGGCAUCAUUCCGAGGGGACCGUCCCCUCGGUAAUGGCGAAUGGGACCCA yielded a self-cleavage of 0.
Work on GGCCGGCAUGGUCCCAGCCUCCUCGCUGGCGGCGGCUGGGCACCAUUCCGAGGGGACCGUCCCCUCGGUAAUGGCGAAUGGGACCCA yielded a self-cleavage of 0.0536.
GGCCGGCAUGGUCCCAGCCUCCUCGCUGGCGACGGCUGGGCAACAUUCCGAGGGGACCGUCCCCUCGGUAAUGGCGAAUGGGACCUA gave a self-cleavage of 0.147.
Variant GGCCGGCAUGGUCCCAGCCUCCUCGCUGGCGACGGCUGGGCAACAUUCCGAGGGGACCGUCCCCUCGGUAAUGGCGUAUGGGACCCA has a self-cleavage of 0.108.
With GGCCGGCAUGGUCCCAGCCUCCUCGCUGGCGACGGCUGGGCAACAUUCCGAGGGGACCGUCCCCUCGGUAAUGGCGGAUGGGACCCA the self-cleavage was 0.0426.
GGCCGGCAUGGUCCCAGCCUCCUCGCUGGCGACGGCUGGGCAACAUUCCGUGGGGACCGUCCCCUCGGUAAUGGCGAAUGGGACCCA showed a self-cleavage of 0.256.
GGCCGGCAUGGUCCCAGCCUCCUCGCUGGCGACGGCUGGGCAACAUUCCGAGGGGACCGUCCCCUCGGUGAUGGCGAAUGGGACCCA gave a self-cleavage of 0.285.
With GGCCGGCAUGGUCCCAGCCUCCUCGCUGGCGACGGCUGGGCAACAUUCCGAGGGGACCGUCCCCUCGGUUAUGGCGAAUGGGACCCA the self-cleavage was 0.0852.
GGCCGGCAUGGUCCCAGCCUCCUCGCUGGCGACGUCUGGGCAACAUUCCGAGGGGACCGUCCCCUCGGUAAUGGCGAAUGGGACCCA gave a self-cleavage of 0.157.
In the case of GGCCGGCAUGGUCCCAGCCUCCUCGCUGGCGGCGGCUGGGCAACAUUCCGAGGGGAUCGUCCCCUCGGUAAUGGCGAAUGGGACCCA, the self-cleavage is reported as 0.0702.
GGCCGGCAUGGUCCCAGCCUCCUCGCUGGCGGCGGCUGGGCAACGUUCCGAGGGGACCGUCCCCUCGGUAAUGGCGAAUGGGACCCA gave a self-cleavage of 0.0811.
GGCCGGCAUGGUCCCAGCCUCCUCGCUGGCGGCGGCUGGGCAACUUUCCGAGGGGACCGUCCCCUCGGUAAUGGCGAAUGGGACCCA showed a self-cleavage of 0.142.
Work on GGCCGGCAUGGUCCCAGCCUCCUCGCUGGCGACGGCUGGGCAACAUUCCGAGGGGACCGUGCCCUCGGUAAUGGCGAAUGGGACCCA yielded a self-cleavage of 0.248.
For GGCCGGCAUGGUCCCAGCCUCCUCGCUGGCGACGGCUGGGCAACAUUCCGAGGGGACCGUUCCCUCGGUAAUGGCGAAUGGGACCCA, the self-cleavage was 0.201.
GGCCGGCAUGGUCCCAGCCUCCUCGCUGGCGACGGCUGGGCAACAUUCCGAGGGGACCGUACCCUCGGUAAUGGCGAAUGGGACCCA gave a self-cleavage of 0.162.
With GGCCGGCAUGGUCCCAGCCUCCUCGCUGGCGACGGCUGGGCCACAUUCCGAGGGGACCGUCCCCUCGGUAAUGGCGAAUGGGACCCA the self-cleavage was 0.162.
Variant GGCCGGCAUGGUCCCAGCCUCCUCGCUGGCGACGGCUGGGCGACAUUCCGAGGGGACCGUCCCCUCGGUAAUGGCGAAUGGGACCCA has a self-cleavage of 0.0519.
In the case of GGCCGGCAUGGUCCCAGCCUCCUCGCUGGCGACGGCUGGGCAACAUUCCGAGGGGACCGUCCCCUCGGUAAUGCCGAAUGGGACCCA, the self-cleavage is reported as 0.108.
Work on GGCCGGCAUGGUCCCAGCCUCCUCGCUGGCGGCGGCUGGGCAACAUUACGAGGGGACCGUCCCCUCGGUAAUGGCGAAUGGGACCCA yielded a self-cleavage of 0.0378.
In the case of GGCCGGCAUGGUCCCAGCCUCCUCGCUGGCGGCGGCUGGGCAACAUUGCGAGGGGACCGUCCCCUCGGUAAUGGCGAAUGGGACCCA, the self-cleavage is reported as 0.0437.
Work on GGCCGGCAUGGUCCCAGCCUCCUCGCUGGCGGCGGCUGGGCAACAUUCCGAGGGGACCGUCCCCUCGGUAUUGGCGAAUGGGACCCA yielded a self-cleavage of 0.115.
GGCCGGCAUGGUCCCAGCCUCCUCGCUGGCGACGGCUGGGCAACAUUCCGAGGGGACCGUCCCCUCGGUAAUGGCGAAUGGAACCCA showed a self-cleavage of 0.0361.
Work on GGCCGGCAUGGUCCCAGCCUCCUCGCUGGCGACGGCUGGGCAACAUUCCGAGGGGACCCUCCCCUCGGUAAUGGCGAAUGGGACCCA yielded a self-cleavage of 0.271.
In the case of GGCCGGCAUGGUCCCAGCCUCCUCGCUGGCGACGGCUGGGCAACAUUCCGAGGGGACCAUCCCCUCGGUAAUGGCGAAUGGGACCCA, the self-cleavage is reported as 0.373.
With GGCCGGCAUGGUCCCAGCCUCCUCGCUGGCGGCGGCUGGGCAACAUUCUGAGGGGACCGUCCCCUCGGUAAUGGCGAAUGGGACCCA the self-cleavage was 0.0811.
In the case of GGCCGGCAUGGUCCCAGCCUCCUCGCUGGCGACGGCUGGGCAACCUUCCGAGGGGACCGUCCCCUCGGUAAUGGCGAAUGGGACCCA, the self-cleavage is reported as 0.0875.
GGCCGGCAUGGUCCCAGCCUCCUCGCUGGCGACGGCUGGGCAACAUUCCGAGGGGACCGUCCCCUCUGUAAUGGCGAAUGGGACCCA gave a self-cleavage of 0.232.
In the case of GGCCGGCAUGGUCCCAGCCUCCUCGCUGGCGACGGCUGGACAACAUUCCGAGGGGACCGUCCCCUCGGUAAUGGCGAAUGGGACCCA, the self-cleavage is reported as 0.242.
